# From CN114805579A (UNIV ZHENGZHOU, dated 2022)
# B1: 抗人ACE2蛋白单克隆抗体2D6 (antibody, V domains shown)
# VH: EVKLVESGGGLVQPGGSLRLSCATSGFTFTDYYMSWVRQPPGKALEWLGFIRNRPNDYTTEYSASVKGRFTISRDNSQSILYLQMNTLRAEDSATYYCARDRGLRQAMDYWGQGTSVTVSS
# VL: QIVLTQSPAIMSASPGEKVTMTCTASSSVTYMHWYQQKSGTSPKRWIYDTSKLASGVPGRFSGSGSGTSYSLTISSMEAEDAATYFCQQWSFNPLTFGSGTKLEIK
# Legend:
# [1] = target: hACE2-ecto重组蛋白 (人ACE2胞外区, C端6×His标签) (human, UniProt Q9BYF1 18-740)
# 人ACE2 (293T-hACE2细胞表面) = 人ACE2 (293T-hACE2细胞表面) (human, UniProt Q9BYF1 18-805); experiment: cell-based or functional assay
# Sequence of 人ACE2 (293T-hACE2细胞表面) (Q9BYF1 18-805): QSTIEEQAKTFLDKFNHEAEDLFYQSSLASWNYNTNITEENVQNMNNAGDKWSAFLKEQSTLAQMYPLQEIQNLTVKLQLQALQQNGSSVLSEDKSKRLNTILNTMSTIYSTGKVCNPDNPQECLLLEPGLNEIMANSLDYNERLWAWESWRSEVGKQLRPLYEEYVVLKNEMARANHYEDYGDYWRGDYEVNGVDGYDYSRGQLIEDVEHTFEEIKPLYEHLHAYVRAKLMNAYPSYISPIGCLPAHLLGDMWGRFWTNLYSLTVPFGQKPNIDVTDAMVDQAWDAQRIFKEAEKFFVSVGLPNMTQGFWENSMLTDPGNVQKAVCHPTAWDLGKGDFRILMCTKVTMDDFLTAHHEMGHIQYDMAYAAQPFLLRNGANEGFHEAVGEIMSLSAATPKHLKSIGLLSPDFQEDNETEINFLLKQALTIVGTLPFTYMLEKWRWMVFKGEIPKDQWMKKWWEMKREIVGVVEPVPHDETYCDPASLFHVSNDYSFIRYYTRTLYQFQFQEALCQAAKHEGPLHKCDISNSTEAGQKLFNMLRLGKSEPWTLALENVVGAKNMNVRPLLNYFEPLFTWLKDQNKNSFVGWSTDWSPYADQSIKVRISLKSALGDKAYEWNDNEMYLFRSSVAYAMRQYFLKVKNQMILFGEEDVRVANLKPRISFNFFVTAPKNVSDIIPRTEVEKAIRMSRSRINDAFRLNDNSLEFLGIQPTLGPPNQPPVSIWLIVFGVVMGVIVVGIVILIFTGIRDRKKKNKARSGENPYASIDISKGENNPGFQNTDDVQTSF
# Sequence of hACE2-ecto重组蛋白 (人ACE2胞外区, C端6×His标签) (Q9BYF1 other isoform, or with tags, fused parts or gaps): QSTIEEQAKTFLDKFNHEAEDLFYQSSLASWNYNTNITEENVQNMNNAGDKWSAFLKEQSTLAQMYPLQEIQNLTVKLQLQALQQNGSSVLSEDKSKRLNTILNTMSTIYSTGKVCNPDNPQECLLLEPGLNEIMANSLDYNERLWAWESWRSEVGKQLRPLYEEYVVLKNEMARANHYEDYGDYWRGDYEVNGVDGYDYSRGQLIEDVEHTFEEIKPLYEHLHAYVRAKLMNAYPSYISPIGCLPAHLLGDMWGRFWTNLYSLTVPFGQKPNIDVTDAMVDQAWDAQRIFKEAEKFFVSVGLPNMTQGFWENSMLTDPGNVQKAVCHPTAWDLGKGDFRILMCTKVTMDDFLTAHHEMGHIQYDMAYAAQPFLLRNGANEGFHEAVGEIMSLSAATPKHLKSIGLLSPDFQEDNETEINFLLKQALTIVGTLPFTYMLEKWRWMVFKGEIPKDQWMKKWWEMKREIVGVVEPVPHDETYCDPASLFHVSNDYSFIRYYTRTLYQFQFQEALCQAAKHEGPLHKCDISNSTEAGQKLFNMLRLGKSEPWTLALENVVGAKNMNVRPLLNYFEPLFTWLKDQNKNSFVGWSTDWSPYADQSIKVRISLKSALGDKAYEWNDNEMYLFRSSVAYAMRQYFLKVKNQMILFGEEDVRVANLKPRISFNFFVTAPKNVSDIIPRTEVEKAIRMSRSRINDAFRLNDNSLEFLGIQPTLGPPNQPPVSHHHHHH
binder,measurement,setting,value
B1,EC50,[1],0.00841 µg/mL
same,"假病毒阻断试验 IC50, SARS-CoV-2 Delta(B.1.617.2)假病毒感染293T-hACE2细胞 (荧光素酶活性)",人ACE2 (293T-hACE2细胞表面),0.346 µg/mL
same,"假病毒阻断试验 IC50, SARS-CoV-2 Omicron(B.1.1.529)假病毒感染293T-hACE2细胞 (荧光素酶活性)",人ACE2 (293T-hACE2细胞表面),0.139 µg/mL
same,"假病毒阻断试验 IC50, SARS-CoV-2野生型(Wuhan-1)假病毒感染293T-hACE2细胞 (荧光素酶活性)",人ACE2 (293T-hACE2细胞表面),0.164 µg/mL
